Numbering of substitutions follows the chain as printed. In names and notes the source's numbering stands. Several values for one entry are separate records, joined by “and”; a condition that tells them apart may be missing. Identical values can stand only once.
T1: recombinant E. coli-expressed human IL-4 (human, UniProt P05112 25-153)
T1 construct: made and purified at GSK; also called Interleukin-4; rhIL-4
T1 sequence: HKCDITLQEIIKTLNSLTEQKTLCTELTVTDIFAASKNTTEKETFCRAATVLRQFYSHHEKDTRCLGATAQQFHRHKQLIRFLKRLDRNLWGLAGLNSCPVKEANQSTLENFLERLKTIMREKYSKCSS

T2: recombinant E. coli-expressed cynomolgus IL-4 (cynomolgus, UniProt P79339 25-153)
T2 construct: also called cyno IL-4
T2 sequence (looked up): T1 sequence with E26K, V29I, F33L

B1: 586H-EPKSC-210 (bispecific antibody, human IgG1, kappa)
heavy: not shown
light: DIVMTQSPLSLPVTPGEPASISCRSSQNIVHINGNTYLEWYLQKPGQSPRLLIYKISDRFSGVPDRFSGSGSGTDFTLKISRVEADDVGIYYCFQGSHVPWTFGQGTKLEIKRTVAAPSVFIFPPSDEQLKSGTASVVCLLNNFYPREAKVQWKVDNALQSGNSQESVTEQDSKDSTYSLSSTLTLSKADYEKHKVYACEVTHQGLSSPVTKSFNRGEC
B2: 586H-ELQLE-210 (bispecific antibody, human IgG1, kappa)
heavy: not shown
light: B1 light
B3: BPC1803 (bispecific antibody, human IgG1, kappa)
heavy: not shown
light: DIVMTQSPLSLPVTPGEPASISCRSSQSIVQSNGDTYLEWYLQKPGQSPQLLIYRVSNRFSGVPDRFSGSGSGTDFTLKISRVEAEDVGVYYCFQGSHVPYTFGQGTKLEIKRTVAAPSVFIFPPSDEQLKSGTASVVCLLNNFYPREAKVQWKVDNALQSGNSQESVTEQDSKDSTYSLSSTLTLSKADYEKHKVYACEVTHQGLSSPVTKSFNRGEC
notes: anti-VEGF tear lipocalin fusion; also called antiIGF1R Heavy Chain-GS-TLPC
B4: BPC1804 (bispecific antibody, human IgG1, kappa)
heavy: not shown
light: B3 light
notes: anti-VEGF tear lipocalin fusion
B5: 586H-210 (bispecific antibody, human IgG1, kappa)
heavy: not shown
light: B1 light
B6: 586H-G4S-210 (bispecific antibody, human IgG1, kappa)
heavy: not shown
light: B1 light
B7: 586H-ASTKG-210 (bispecific antibody, human IgG1, kappa)
heavy: not shown
light: B1 light
B8: anti-CD20 mAb (antibody, human IgG1, kappa, V domains shown)
VH: QVQLQQPGAELVKPGASVKMSCKASGYTFTSYNMHWVKQTPGRGLEWIGAIYPGNGDTSYNQKFKGKATLTADKSSSTAYMQLSSLTSEDSAVYYCARSTYYGGDWYFNVWGAGTLVTVSS
VL: QIVLSQSPAILSASPGEKVTMTCRASSSVSYIHWFQQKPGSSPKPWIYATSNLASGVPVRFSGSGSGTSYSLTISRVEAEDAATYYCQQWTSNPPTFGGGTKLEIKR
notes: also called Rituxan; anti-CD20 control antibody
B9: PascoH-474 (bispecific antibody, human IgG1, kappa)
heavy: not shown
light: DIVLTQSPSSLSASVGDRVTITCKASQSVDYDGDSYMNWYQQKPGKAPKLLIYAASNLESGIPSRFSGSGSGTDFTFTISSLQPEDIATYYCQQSNEDPPTFGQGTKVEIKRTVAAPSVFIFPPSDEQLKSGTASVVCLLNNFYPREAKVQWKVDNALQSGNSQESVTEQDSKDSTYSLSSTLTLSKADYEKHKVYACEVTHQGLSSPVTKSFNRGEC
notes: also called BPC1000
B10: PascoH-TVAAPS-474 (bispecific antibody, human IgG1, kappa)
heavy: not shown
light: B9 light
B11: PascoH-ASTKG-474 (bispecific antibody, human IgG1, kappa)
heavy: not shown
light: B9 light
B12: PascoH-G4S-474 (bispecific antibody, human IgG1, kappa)
heavy: not shown
light: B9 light
B13: PascoL-474 (bispecific antibody, human IgG1, kappa)
heavy: not shown
light: DIVLTQSPSSLSASVGDRVTITCKASQSVDYDGDSYMNWYQQKPGKAPKLLIYAASNLESGIPSRFSGSGSGTDFTFTISSLQPEDIATYYCQQSNEDPPTFGQGTKVEIKRTVAAPSVFIFPPSDEQLKSGTASVVCLLNNFYPREAKVQWKVDNALQSGNSQESVTEQDSKDSTYSLSSTLTLSKADYEKHKVYACEVTHQGLSSPVTKSFNRGECGSGVQLLESGGGLVQPGGSLRLSCAASGFTFAWYDMGWVRQAPGKGLEWVSSIDWHGEVTYYADSVKGRFTISRDNSKNTLYLQMNSLRAEDTAVYYCATAEDEPGYDYWGQGTLVTVSS
B14: PascoL-EPKSC-474 (bispecific antibody, human IgG1, kappa)
heavy: not shown
light: DIVLTQSPSSLSASVGDRVTITCKASQSVDYDGDSYMNWYQQKPGKAPKLLIYAASNLESGIPSRFSGSGSGTDFTFTISSLQPEDIATYYCQQSNEDPPTFGQGTKVEIKRTVAAPSVFIFPPSDEQLKSGTASVVCLLNNFYPREAKVQWKVDNALQSGNSQESVTEQDSKDSTYSLSSTLTLSKADYEKHKVYACEVTHQGLSSPVTKSFNRGECEPKSCDKTHTCPPCPGSGVQLLESGGGLVQPGGSLRLSCAASGFTFAWYDMGWVRQAPGKGLEWVSSIDWHGEVTYYADSVKGRFTISRDNSKNTLYLQMNSLRAEDTAVYYCATAEDEPGYDYWGQGTLVTVSS
B15: PascoL-ASTKG-474 (bispecific antibody, human IgG1, kappa)
heavy: not shown
light: DIVLTQSPSSLSASVGDRVTITCKASQSVDYDGDSYMNWYQQKPGKAPKLLIYAASNLESGIPSRFSGSGSGTDFTFTISSLQPEDIATYYCQQSNEDPPTFGQGTKVEIKRTVAAPSVFIFPPSDEQLKSGTASVVCLLNNFYPREAKVQWKVDNALQSGNSQESVTEQDSKDSTYSLSSTLTLSKADYEKHKVYACEVTHQGLSSPVTKSFNRGECASTKGPTGSGVQLLESGGGLVQPGGSLRLSCAASGFTFAWYDMGWVRQAPGKGLEWVSSIDWHGEVTYYADSVKGRFTISRDNSKNTLYLQMNSLRAEDTAVYYCATAEDEPGYDYWGQGTLVTVSS
B16: PascoHL-G4S-474 (bispecific antibody, human IgG1, kappa)
heavy: not shown
light: DIVLTQSPSSLSASVGDRVTITCKASQSVDYDGDSYMNWYQQKPGKAPKLLIYAASNLESGIPSRFSGSGSGTDFTFTISSLQPEDIATYYCQQSNEDPPTFGQGTKVEIKRTVAAPSVFIFPPSDEQLKSGTASVVCLLNNFYPREAKVQWKVDNALQSGNSQESVTEQDSKDSTYSLSSTLTLSKADYEKHKVYACEVTHQGLSSPVTKSFNRGECGGGGSGVQLLESGGGLVQPGGSLRLSCAASGFTFAWYDMGWVRQAPGKGLEWVSSIDWHGEVTYYADSVKGRFTISRDNSKNTLYLQMNSLRAEDTAVYYCATAEDEPGYDYWGQGTLVTVSS

molecular target: T1, recombinant E. coli-expressed human IL-4; experiment: ELISA

| binding result | Binder |
| --- | --- |
| binds | B1 |
| binds | B2 |

molecular target: T3, recombinant human VEGF (human, UniProt P15692-4 27-191); experiment: ELISA
T3 construct: also called VEGF165; hVEGF165

| binding result | Binder |
| --- | --- |
| binds | B3 |
| binds | B4 |

molecular target: T4, recombinant E. coli-expressed human IL-13 (human, UniProt P35225 35-146); experiment: SPR
T4 construct: made and purified at GSK; also called Interleukin-13; rhIL-13

| Kd [nM] | Binder |
| --- | --- |
| 0.44 | B5 |
| 0.42 | B6 |
| 0.43 | B1 |
| 0.4 | B7 |
| 0.43 | B2 |

molecular target: T4, recombinant E. coli-expressed human …; experiment: SPR; remark: another data set of the same source

| binding result | Binder |
| --- | --- |
| no binding | B8 |

molecular target: T5, recombinant E. coli-expressed cynomolgus IL-13 (cynomolgus, UniProt Q0PW92 21-132); experiment: SPR
T5 construct: also called cyno IL-13

| Kd [nM] | koff [s⁻¹] | kon [M⁻¹ s⁻¹] | Binder |
| --- | --- | --- | --- |
| 18.6 | 0.0109 | 586000 | B9 |
| 27.1 | 0.0117 | 433000 | B10 |
| 29.5 | 0.0107 | 364000 | B11 |

molecular target: T2, recombinant E. coli-expressed …; experiment: SPR

| Kd [nM] | koff [s⁻¹] | kon [M⁻¹ s⁻¹] | Binder |
| --- | --- | --- | --- |
| 0.0439 | 8.14e-05 | 1.85e+06 | B9 |
| 0.0491 | 8.85e-05 | 1.8e+06 | B10 |
| 0.0445 | 7.9e-05 | 1.78e+06 | B11 |

molecular target: T1, recombinant E. coli-expressed human IL-4; experiment: SPR exp 1

| Kd [nM] | koff [s⁻¹] | kon [M⁻¹ s⁻¹] | Binder |
| --- | --- | --- | --- |
| 0.02 | 8.6e-05 | 5.1e+06 | B12 |
| 0.02 | 9.4e-05 | 4.8e+06 | B9 |
| 0.02 | 9.7e-05 | 5.5e+06 | B10 |
| 0.02 | 8.6e-05 | 5.3e+06 | B11 |

molecular target: T1, recombinant E. coli-expressed human IL-4; experiment: SPR exp 2

| Kd | koff | kon | Binder |
| --- | --- | --- | --- |
| 0.065 nM and 0.048 nM | 0.000184 s⁻¹ and 0.000122 s⁻¹ | 2.8e+06 M⁻¹ s⁻¹ and 2.53e+06 M⁻¹ s⁻¹ | B13 |
| 0.139 nM and 0.127 nM | 0.000258 s⁻¹ and 0.000318 s⁻¹ | 1.86e+06 M⁻¹ s⁻¹ and 2.51e+06 M⁻¹ s⁻¹ | B14 |
| 0.041 nM and 0.06 nM | 0.000121 s⁻¹ and 0.000152 s⁻¹ | 2.95e+06 M⁻¹ s⁻¹ and 2.54e+06 M⁻¹ s⁻¹ | B15 |

molecular target: T4, recombinant E. coli-expressed human …; experiment: SPR exp 1

| Kd [nM] | koff [s⁻¹] | kon [M⁻¹ s⁻¹] | Binder |
| --- | --- | --- | --- |
| 0.67 | 0.00026 | 390000 | B12 |
| 0.84 | 0.00031 | 360000 | B9 |
| 0.94 | 0.00042 | 450000 | B10 |
| 1.5 | 0.00046 | 310000 | B11 |

molecular target: T4, recombinant E. coli-expressed human …; experiment: SPR exp 2

| Kd | koff | kon | Binder |
| --- | --- | --- | --- |
| 1.34 nM and 1.24 nM | 0.000382 s⁻¹ and 0.000386 s⁻¹ | 286000 M⁻¹ s⁻¹ and 312000 M⁻¹ s⁻¹ | B13 |
| 0.801 nM and 0.815 nM | 0.000334 s⁻¹ and 0.000286 s⁻¹ | 417000 M⁻¹ s⁻¹ and 351000 M⁻¹ s⁻¹ | B14 |
| 0.451 nM and 0.595 nM | 0.000238 s⁻¹ and 0.00032 s⁻¹ | 526000 M⁻¹ s⁻¹ and 538000 M⁻¹ s⁻¹ | B15 |

molecular target: T4, recombinant E. coli-expressed human …; experiment: SPR, purified

| Kd [nM] | Binder |
| --- | --- |
| 0.58 | B12 |
| 0.71 | B9 |
| 0.87 | B16 |

molecular target: T1, recombinant E. coli-expressed human IL-4; experiment: SPR, purified

| Kd [nM] | Binder |
| --- | --- |
| 0.036 | B12 |
| 0.037 | B9 |
| 0.035 | B16 |

molecular target: T4, recombinant E. coli-expressed human …; experiment: SPR stoichiometry

| Stoichiometry | Binder |
| --- | --- |
| 1.9 | B12 |
| 1.9 | B9 |
| 3.5 | B16 |

molecular target: T1, recombinant E. coli-expressed human IL-4; experiment: SPR stoichiometry

| Stoichiometry | Binder |
| --- | --- |
| 1.8 | B12 |
| 1.8 | B9 |
| 1.7 | B16 |

molecular target: T1, recombinant E. coli-expressed human IL-4; experiment: ELISA, IL-4 binding to IL4Ralpha-Fc

| IC50 [nM] | Binder |
| --- | --- |
| 26.8 | B5 |
| 29.9 | B6 |
| 27.3 | B7 |
